According to patent publication US20260176378A1 (DYAX, published 2026):
Changes are numbered by the printed parent chain.

B1: M6-D08 (Fab, V domains shown)
VH: EVQLLESGGGLVQPGGSLRLSCAASGFTFSRYHMVWVRQAPGKGLEWVSSISPSGGWTNYADSVKGRFTISRDNSKNTLYLQMNSLRAEDTAMYYCAREMATIAGQFDPWGQGTLVTVSS
VL: DIQMTQSPSSLSASVGDRVTITCRASQSISSYLNWYQQKPGKAPKLLIYGASSLQSGVPSRFSGSGSGTDFTLTISSLQPEDSATYYCQQSYTRWTFGQGTKVEIK
B2: M28-F07 (Fab, V domains shown)
VH: EVQLLESGGGLVQPGGSLRLSCAASGFTFSDYTMYWVRQAPGKGLEWVSSIVPSGGHTLYADSVKGRFTISRDNSKNTLYLQMNSLRAEDTAVYYCAKDHLSSWYGGFFDYWGQGTLVTVSS
VL: DIQMTQSPSSVSASVGDRVTITCRASQGISSWLAWYQQKPGKAPKLLIYATSGLQSGVPSRFSGSGSGTDFTLTISSLQPEDFATYYCQQAKSFPLTFGGGTRVEIK
B3: M77-H04 (Fab, V domains shown)
VH: EVQLLESGGGLVQPGGSLRLSCAASGFTFSYYTMIWVRQAPGKGLEWVSGIRSSGGGTRYADSVKGRFTISRDNSKNTLYLQMNSLRAEDTAVYYCAKDGSRYSYGSIYYYYGMDAWGQGTTVTVSS
VL: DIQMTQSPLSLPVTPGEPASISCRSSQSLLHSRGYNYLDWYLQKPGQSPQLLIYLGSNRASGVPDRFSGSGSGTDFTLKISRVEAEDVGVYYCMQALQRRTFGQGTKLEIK
B4: M6-A08 (Fab, V domains shown)
VH: EVQLLESGGGLVQPGGSLRLSCAASGFTFSPYPMQWVRQAPGKGLEWVSSISSSGGMTEYADSVKGRFTISRDNSKNTLYLQMNSLRAEDTAVYYCARDDYGGKGGAFDIWGQGTMVTVSS
VL: DIQMTQSPSSLSASVGDRVTITCRASQRISFYLNWFQQKPGKAPNLLIYGASSLQSGVPSRFSGSGSGTDFTLTISSLQPKDFGTYYCQQTFSTPNTFGQGTKLEIK
B5: M29-G08 (Fab, V domains shown)
VH: EVQLLESGGGLVQPGGSLRLSCAASGFTFSYYHMWWVRQAPGKGLEWVSGISPSGGFTFYADSVKGRFTISRDNSKNTLYLQMNSLRAEDTAVYYCARDYYYDSSGYSPLGYWGQGTLVTVSS
VL: DIQMTQSPATLSASPGETVTLSCRASQNIGNDVAWYRQRPGQAPRLLIHHASTRAYGIPARLRGSGSATEFTLTITSLEPEDFAIYYCQQFYDWPAHTFALGTRLEIKR
B6: M29-G10 (Fab, V domains shown)
VH: EVQLLESGGGLVQPGGSLRLSCAASGFTFSFYKMIWVRQAPGKGLEWVSSISSSGGSTQYADSVKGRFTISRDNSKNTLYLQMNSLRAEDTAVYYCARDRVDLGYLDYWGQGTLVTVSS
VL: DIQMTQSPSSLSSSVGDSATITCRASQSISIYLNWYQQKPGKAPKILIYGASQLESGVPSRFSGSGSGTDFTLTVSGLQPEDFATYWCQQSYNVPYTFGQGTKLEIK
B7: M29-C07 (Fab, V domains shown)
VH: EVQLLESGGGLVQPGGSLRLSCAASGFTFSGYDMMWVRQAPGKGLEWVSVISSSGGNTAYADSVKGRFTISRDNSKNTLYLQMNSLRAEDTAVYYCARESSGLYYFDYWGQGTLVTVSS
VL: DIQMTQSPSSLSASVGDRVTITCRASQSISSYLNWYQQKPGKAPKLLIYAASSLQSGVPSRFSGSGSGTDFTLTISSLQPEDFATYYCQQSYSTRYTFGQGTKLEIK
B8: M28-E11 (Fab, V domains shown)
VH: EVQLLESGGGLVQPGGSLRLSCAASGFTFSLYDMTWVRQAPGKGLEWVSGISSSGGVTIYADSVKGRFTISRDNSKNTLYLQMNSLRAEDTAVYYCARTYYYDSSGYADAFDIWGQGTMVTVSS
VL: DIQMTQSPSSVSASVGDRVTINCRASQDISNWLAWYQQKPGKAPNLLIYAASSLQTGAPSRFSGSGSGTDFTLTISSLQPEDFGTYVCQQSYSLPWTFGLGTKVEVR
B9: M28-D02 (Fab, V domains shown)
VH: EVQLLESGGGLVQPGGSLRLSCAASGFTFSWYPMQWVRQAPGKGLEWVSYIYPSGGGTDYADSVKGRFTISRDNSKNTLYLQMNSLRAEDTATYYCATSSGWLGDAFDIWGQGTMVTVSS
VL: DIQMTQSPSSLSASEGDMVTITCRTSRRIGTYLNWYQQKPGKAPKLLIYGASSLQSGVPSRFSGSGSGTDFTLTVSSLQPEDVGTYYCQQSFSSPWTFGPGTKVEIK
B10: M76-H02 (Fab, V domains shown)
VH: B9 VH with W31M, P33W, G57P, D59K, T93V, T98R, S99P, W102S, L103Y
VL: DIQMTQSPSSLSASEGDRVTITCRASQDISVYLNWYQMKSGKAPKLLIYGGASLQSGVPARFSGSGYGTDFTLTITDLRPEDFATYYCQQSYSLPFTFGGGTKVEIK
B11: M76-G06 (Fab, V domains shown)
VH: EVQLLESGGGLVQPGGSLRLSCAASGFTFSGYIMHWVRQAPGKGLEWVSWIYPSGGWTEYADSVKGRFTISRDNSKNTLYLQMNSLRAEDTAVYYCARDAPGVGAIDYWGQGTLVTVSS
VL: DIQMTQSPSSLSASVRDRVTITCRASQSISTYLNWYQQKPGEAPKLLVFAASSLQSGVPSRFSGSGSGTDFTLSISSLQPEDFATYYCQQSYSTPHTFGQGAKVEIK
B12: M74-A07 (Fab, V domains shown)
VH: EVQLLESGGGLVQPGGSLRLSCAASGFTFSQYLMMWVRQAPGKGLEWVSSIYPSGGYTSYADSVKGRFTISRDNSKNTLYLQMNSLRAEDTAVYYCARVSTAVADNDYWGQGTLVTVSS
VL: DIQMTQSPSSLSASVRDRVTITCRTSQNINTYLNWYYQAPGRAPKLLIFGVSSLHRGVSSRFSGSGDGTEFTLTISSLQPEDIGTYFCQQSYSSPWTFGQGTKVEIK
B13: M6-A06 (Fab, V domains shown)
VH: B12 VH with Q31L, L33Q, M35T, S50G, Y52W, Y57F, S59D
VL: DIQMTQSPSSLSASVGDSVTISCRASQSISMYLNWYQHKPGKAPKLLIYGTSSLQSGVPSRFSGSGPGGTDFTLTISSLQPEDFATYYCQQSYSAPWTFGQGTKVEIK
B14: M6-D03 (Fab, V domains shown)
VH: B12 VH with Q31K, L33F, M35G, S50V, Y52G, P53S, Y57W
VL: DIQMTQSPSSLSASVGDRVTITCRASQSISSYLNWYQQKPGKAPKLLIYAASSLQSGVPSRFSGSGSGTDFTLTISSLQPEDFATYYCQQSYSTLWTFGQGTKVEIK
B15: M28-F01 (Fab, V domains shown)
VH: EVQLLESGGGLVQPGGSLRLSCAASGFTFSVYLMHWVRQAPGKGLEWVSGISPSGGYTQYADSVKGRFTISRDNSKNTLYLQMNSLRAEDTAVYYCARPGGLDAFDIWGQGTMVTVSS
VL: DIQMTQSPSSLSASVGDRVTITCRASQSINTYLNWYQQKPGKAPKVLIHAASTLESGVPSRFSGSGSGTDFTLTISSLQPEDFATYYCQQSYSTPPTFGQGTKVEIK
B16: M76-F02 (Fab, V domains shown)
VH: B15 VH with V31L, L33D, H35N, Y57Q, Q59M, P99Q, G100P, G101M, L102I, D103S
VL: DIQMTQSPSSLSASVGDRVTITCRASQTIDNYLHWYQQKPGKAPKVLIHDASSLQSGVPPRFSGSGSGTDFTLTISSLQPEDFATYYCQQSYDTPQYTFGQGTKLEIK
B17: M28-A01 (Fab, V domains shown)
VH: EVQLLESGGGLVQPGGSLRLSCAASGFTFSWYAMHWVRQAPGKGLEWVSGIYSSGGYTKYADSVKGRFTISRDNSKNTLYLQMNSLRAEDTAVYYCARDLSNGDDVFDIWGQGTMVTVSS
VL: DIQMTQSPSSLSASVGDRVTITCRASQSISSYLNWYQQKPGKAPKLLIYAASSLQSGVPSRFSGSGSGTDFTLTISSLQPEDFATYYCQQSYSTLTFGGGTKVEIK
B18: M29-E02 (Fab, V domains shown)
VH: EVQLLESGGGLVQPGGSLRLSCAASGFTFSRYPMMWVRQAPGKGLEWVSVIYPSGGDTFYADSVKGRFTISRDNSKNTLYLQMNSLRAEDTAVYYCASGDDYLWEAAVYWGQGTLVTVSS
VL: QSVLTQPPSVSEAPRQRVTISCSGSSSNIGNNAVSWYQQLPGKAPKLLIYYDDLLPSGVSDRFSGSKSGTSASLAISGLRSEDEADYYCAAWDDSLNGFVFGTGTKVTVL
B19: M28-E01 (Fab, V domains shown)
VH: EVQLLESGGGLVQPGGSLRLSCAASGFTFSSYPMGWVRQAPGKGLEWVSRISSSGGMTIYADSVKGRFTISRDNSKNTLYLQMNSLRAEDTAVYYCARDDWNVGMDVWGQGTTVTVSS
VL: DIQMTQSPSSLSASVGDRVTITCRASQSISSYLNWYQQKPGKAPKLLIYAASSLQSGVPSKFSGSGSGTDYTLTISSLQPEDFATYYCQQTYTTPWTFGQGTKVEIK
B20: M77-C07 (Fab, V domains shown)
VH: B11 VH with G31L, H35G, W50G, W57F, E59M, D99E, A100S, P101S, G104A, I106P
VL: B19 VL with S10T, S28N, K61R, Y71F, Y87S, T91S, T93S, W96R
B21: M29-D10 (Fab, V domains shown)
VH: EVQLLESGGGLVQPGGSLRLSCAASGFTFSWYPMYWVRQAPGKGLEWVSSIGSSGGPTPYADSVKGRFTISRDNSKNTLYLQMNSLRAEDTAVYYCARWADYGGSLDYWGQGTLVTVSS
VL: DIQMTQSPSSLSASVGDTVSITCRASQSITIYLNWYQHKPGKAPNLLIYGASNLHSGVPSRFSGSGSGTDFTLTISSLQPEDFATYYCQQSYDTPLTFGGGTKVEIK
B22: M76-G02 (Fab, V domains shown)
VH: EVQLLESGGGLVQPGGSLRLSCAASGFTFSLYAMWWVRQAPGKGLEWVSYISSSGGFTSYADSVKGRFTISRDNSKNTLYLQMNSLRAEDTAVYYCARYRVGVAATDYWGQGTLVTVSS
VL: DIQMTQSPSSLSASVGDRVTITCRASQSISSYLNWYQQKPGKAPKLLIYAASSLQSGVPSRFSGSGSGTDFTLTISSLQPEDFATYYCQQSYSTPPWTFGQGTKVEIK
B23: M28-D12 (Fab, V domains shown)
VH: EVQLLESGGGLVQPGGSLRLSCAASGFTFSWYTMHWVRQAPGKGLEWVSVIYPSGGPTSYADSVKGRFTISRDNSKNTLYLQMNSLRAEDTATYYCARDGSGSYLGFDYWGQGTLVTVSS
VL: DIQMTQSPSSLSASVGDRVTITCRASQSIATYLNWYQQKPGRAPKLLIYAASSLQSGVPSRFVGGGSGSGTHFTLTISSLQPEDFATYYCQQSYSTRETFGQGTKVEIK
B24: M28-C03 (Fab, V domains shown)
VH: EVQLLESGGGLVQPGGSLRLSCAASGFTFSYYQMGWVRQAPGKGLEWVSSIYPSGGMTDYADSVKGRFTISRDNSKNTLYLQMNSLRAEDTAVYYCTRGSPWGDDAFDIWGQGTMVTVSS
VL: DIQMTQSPSSLSASVGDRVTITCRASQSINFYLNWYQQKPGKAPKLLIYVASSLESGVPSRFSGSASGTEFTLTISSLQPEDFATYYCLQSYSAPYTFGQGTKVEIT

Target: T1, human plasma kallikrein (human, UniProt P03952 20-390; P03952 391-638)
T1 construct: two disulfide-linked chains; NP_000883.2; also called pKal; hpKal
Assay: ELISA, biotinylated pKal signal over streptavidin background

T1 sequence (P03952 20-390 limits assumed, chain 1 of 2): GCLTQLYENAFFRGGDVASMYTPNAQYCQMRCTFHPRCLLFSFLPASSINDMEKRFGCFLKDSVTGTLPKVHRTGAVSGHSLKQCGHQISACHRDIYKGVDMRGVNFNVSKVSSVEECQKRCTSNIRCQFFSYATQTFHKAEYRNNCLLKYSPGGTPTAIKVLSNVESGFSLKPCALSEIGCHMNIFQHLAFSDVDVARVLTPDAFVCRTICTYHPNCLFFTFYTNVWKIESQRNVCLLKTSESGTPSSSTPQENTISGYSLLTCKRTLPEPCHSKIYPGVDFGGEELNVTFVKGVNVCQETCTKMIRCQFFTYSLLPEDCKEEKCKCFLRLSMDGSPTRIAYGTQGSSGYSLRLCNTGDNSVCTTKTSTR
T1 sequence (P03952 391-638 limits assumed, chain 2 of 2): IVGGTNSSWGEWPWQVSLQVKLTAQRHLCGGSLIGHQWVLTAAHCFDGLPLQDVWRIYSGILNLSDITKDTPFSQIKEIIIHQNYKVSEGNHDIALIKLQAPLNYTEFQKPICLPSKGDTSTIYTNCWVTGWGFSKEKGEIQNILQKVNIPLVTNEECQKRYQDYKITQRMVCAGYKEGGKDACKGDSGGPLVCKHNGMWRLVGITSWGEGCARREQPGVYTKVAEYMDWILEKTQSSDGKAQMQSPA

Binder	ELISA (T/B)
B1	16
B2	33
B3	7.6
B4	23.4
B5	40.4
B6	16.4
B7	5.2
B8	29.3
B9	3.7
B10	13.4
B11	11.8
B12	8.6
B13	11.7
B14	15.5
B15	1.5
B16	6.4
B17	19
B18	2
B19	41
B20	16.1
B21	23.6
B22	10.3
B23	41.6
B24	2.2
